{
  "source": "paper PMC3867821",
  "molecular_target": "KLF4 (UniProt Q60793)",
  "test": "anti-HA co-IP, STAT3 blot",
  "details": "reference: wild-type FLAG-STAT3; sites Y705",
  "data": [
    {"substance": "STAT3 (from UniProt P42227) Y705F", "values": [
      {"measurement": "binding against the reference", "result": "lost"}
    ]}
  ]
}
